From patent publication US6677130

Target: T1, GST-ATF2 substrate, P15336
T1 chain: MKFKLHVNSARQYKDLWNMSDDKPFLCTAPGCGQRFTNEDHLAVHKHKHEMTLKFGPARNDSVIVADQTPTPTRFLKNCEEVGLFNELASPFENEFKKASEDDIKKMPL

B1: epitope-tagged p38-2 (3xHA-p38-2) (protein)
chain: MSGPRAGFYRQELNKTVWEVPQRLQGLRPVGSGAYGSVCSAYDARLRQKVAVKKLSRPFQSLIHARRTYRELRLLKHLKHENVIGLLDVFTPATSLEDFSEVYLVTTLMGADLNNIVKCQALSDEHVQFLVYQLLRGLKYIHSAGIIHRDLKPSNVAVNEDCELRILDFGLARQADEEMTGYVATRWYRAPEIMLNWMHYNQTVDIWSVGCIMAELLQGKALFPGSDYIDQLKRIMEVVGTPSPEVLAKISSEHARTYIQSLPPMPQKDLSSIFRGANPLAIDLLGRMLVLDSDQRVSAAEALAHAYFSQYHDPEDEPEAEPYDEGVEAKERTLEEWKELTYQEVLSFKPPEPPKPPGSLEIEQ
phosphorylation of GST-ATF2 by immunoprecipitated HA-p38-2 ([gamma-32P]ATP, SDS-PAGE, autoradiography): the inducible phosphorylation of ATF2 depends on a kinase cascade comprised of MEK6 and p38-2
